Test results published in patent publication US20050136055A1.

Experiments:
[1] = target: Fc receptors (FcR) on human leukocytes (human); assay: 125I-labelled IgG1 control on human leukocytes, 4 C
[2] = target: Fc receptors (FcR) on cynomolgus leukocytes (cynomolgus); assay: 125I-labelled IgG1 control on cynomolgus leukocytes, 4 C

human IgG1 control mAb (antibody)
specific binding as % of the total bound radioactivity [1]: 56% | specific binding as % of the total bound radioactivity [2]: 51%
